Values quoted from earlier work in publication PMC4485156.
pKd: −log10 of the molar value.

Molecular target: haptoglobin-hemoglobin complex (Homo sapiens) (UniProt P00738)
Chain of UniProt P00738 (P00738 19-406, chain 1 of 3): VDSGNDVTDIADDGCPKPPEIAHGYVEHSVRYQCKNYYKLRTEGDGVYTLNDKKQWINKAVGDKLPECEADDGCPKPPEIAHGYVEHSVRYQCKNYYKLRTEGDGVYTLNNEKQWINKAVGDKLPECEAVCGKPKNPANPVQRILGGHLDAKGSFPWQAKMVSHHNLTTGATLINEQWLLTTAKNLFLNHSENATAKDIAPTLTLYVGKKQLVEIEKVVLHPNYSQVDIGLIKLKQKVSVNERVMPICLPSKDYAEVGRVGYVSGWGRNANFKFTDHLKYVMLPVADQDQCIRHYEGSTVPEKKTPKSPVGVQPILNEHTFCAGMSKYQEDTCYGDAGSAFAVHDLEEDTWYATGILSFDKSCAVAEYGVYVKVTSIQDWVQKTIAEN
Chain of UniProt P00738 (P69905 2-142, chain 2 of 3, further chain): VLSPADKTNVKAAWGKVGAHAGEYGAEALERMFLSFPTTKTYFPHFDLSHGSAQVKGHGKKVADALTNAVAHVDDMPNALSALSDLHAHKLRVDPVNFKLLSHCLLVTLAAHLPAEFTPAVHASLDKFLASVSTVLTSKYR
Chain of UniProt P00738 (P68871 2-147, chain 3 of 3, further chain): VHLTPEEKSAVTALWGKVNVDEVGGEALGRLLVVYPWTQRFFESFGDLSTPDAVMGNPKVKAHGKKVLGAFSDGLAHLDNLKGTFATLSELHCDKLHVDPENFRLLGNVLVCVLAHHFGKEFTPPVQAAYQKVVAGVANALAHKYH

Question: With CD163 (from UniProt Q86VB7) as the substance, how does the pKd read?
Answer: The pKd was 7.72.
